Assay results: the RNAGym collection of RNA variant scans (doi:10.1093/molbev/msab373)

B1: Azoarcus group I ribozyme (parent)
chain: GUGCCUUGCGCCGGGAAACCACGCAAGGGAUGGUGUCAAAUUCGGCGAAACCUAAGCGCCCGCCCGGGCGUAUGGCAACGCCGAGCCAAGCUUCGGCGCCUGCGCCGAUGAAGGUGUAGAGACUAGACGGCACCCACCUAAGGCAAACGCUAUGGUGAAGGCAUAGUCCAGGGAGUGGCGAAAGUCACACAAACCGG

Variants of: B1
Assay: reverse-splicing fitness (ratio to wild type); higher = more active; in vitro selection; Mg2+ level not given
In short: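 An in vitro group I ribozyme library with randomized positions was T7-transcribed and gel-purified. In triplicate, 10 pmol RNA in EPPS pH 7.5 was reacted with 50 pmoles of a 30-nt RNA substrate for 1 h at 37 °C across several added MgCl2 levels (1–48 mM), then stopped with EDTA. Products were reverse transcribed from a substrate-complementary primer, PCR-amplified and sequenced (HiSeq 4000). Fitness is a variant's read proportion after selection over that before, normalised to wild type.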

In order of rising reverse-splicing fitness:
1. GUGCCUUGCGCCGGGAAACCACGCAAGGGAUGGUGUCAAAUUCGGCGAAACCUAAGCGCCCGCCCGGGCGUAUGGCAACGCCGAGCCAAGCUUCGGCGCCUGCGCCGAUGCAGGUGUAGUGACUAGACGGCACCCACCUAAGGCGAACGUUAUGGUGAAGGCAUAGUCAAGGGAGGGGCGAAAGUCACACAAACCGG [A111C A120U A145G C150U C169A U176G]  0.00278
2. GUGCCUUGCGCCGGGAAACCACGCAAGGGAUGGUGUCAAAUUCGGCGAAACCUAAGCGCCCGCCCGGGCGUAUGGCAACGCCGAGCCAAGCUUCGGCGCCUGCGCCGAUGCAGGUGUAGUGACUAGACGGCACCCACCUAAGGCGAACGUUAUGGUGAAGGCAUAGUCAAGGGAGCGGCGAAAGUCACACAAACCGG [A111C A120U A145G C150U C169A U176C]  0.00404
3. GUGCCUUGCGCCGGGAAACCACGCAAGGGAUGGUGUCAAAUUCGGCGAAACCUAAGCGCCCGCCCGGGCGUAUGGCAACGCCGAGCCAAGCUUCGGCGCCUGCGCCGAUGCAGGUGUAGUGACUAGACGGCACCCACCUAAGGCGAACGGUAUGGUGAAGGCAUAGUCUAGGGAGGGGCGAAAGUCACACAAACCGG [A111C A120U A145G C150G C169U U176G]  0.00436
4. GUGCCUUGCGCCGGGAAACCACGCAAGGGAUGGUGUCAAAUUCGGCGAAACCUAAGCGCCCGCCCGGGCGUAUGGCAACGCCGAGCCAAGCUUCGGCGCCUGCGCCGAUGCAGGUGUAGUGACUAGACGGCACCCACCUAAGGCGAACGGUAUGGUGAAGGCAUAGUCCAGGGAGGGGCGAAAGUCACACAAACCGG [A111C A120U A145G C150G U176G]  0.00515
5. GUGCCUUGCGCCGGGAAACCACGCAAGGGAUGGUGUCAAAUUCGGCGAAACCUAAGCGCCCGCCCGGGCGUAUGGCAACGCCGAGCCAAGCUUCGGCGCCUGCGCCGAUGCAGGUGUAGUGACUAGACGGCACCCACCUAAGGCGAACGUUAUGGUGAAGGCAUAGUCAAGGGAGAGGCGAAAGUCACACAAACCGG [A111C A120U A145G C150U C169A U176A]  0.00648
6. GUGCCUUGCGCCGGGAAACCACGCAAGGGAUGGUGUCAAAUUCGGCGAAACCUAAGCGCCCGCCCGGGCGUAUGGCAACGCCGAGCCAAGCUUCGGCGCCUGCGCCGAUGCAGGUGUAGUGACUAGACGGCACCCACCUAAGGCGAACGUUAUGGUGAAGGCAUAGUCGAGGGAGAGGCGAAAGUCACACAAACCGG [A111C A120U A145G C150U C169G U176A]  0.0074
7. GUGCCUUGCGCCGGGAAACCACGCAAGGGAUGGUGUCAAAUUCGGCGAAACCUAAGCGCCCGCCCGGGCGUAUGGCAACGCCGAGCCAAGCUUCGGCGCCUGCGCCGAUGCAGGUGUAGUGACUAGACGGCACCCACCUAAGGCGAACGGUAUGGUGAAGGCAUAGUCUAGGGAGCGGCGAAAGUCACACAAACCGG [A111C A120U A145G C150G C169U U176C]  0.00769
8. GUGCCUUGCGCCGGGAAACCACGCAAGGGAUGGUGUCAAAUUCGGCGAAACCUAAGCGCCCGCCCGGGCGUAUGGCAACGCCGAGCCAAGCUUCGGCGCCUGCGCCGAUGCAGGUGUAGUGACUAGACGGCACCCACCUAAGGCGAACGUUAUGGUGAAGGCAUAGUCAAGGGAGUGGCGAAAGUCACACAAACCGG [A111C A120U A145G C150U C169A]  0.00795
9. GUGCCUUGCGCCGGGAAACCACGCAAGGGAUGGUGUCAAAUUCGGCGAAACCUAAGCGCCCGCCCGGGCGUAUGGCAACGCCGAGCCAAGCUUCGGCGCCUGCGCCGAUGCAGGUGUAGUGACUAGACGGCACCCACCUAAGGCGAACGGUAUGGUGAAGGCAUAGUCUAGGGAGAGGCGAAAGUCACACAAACCGG [A111C A120U A145G C150G C169U U176A]  0.00885
10. GUGCCUUGCGCCGGGAAACCACGCAAGGGAUGGUGUCAAAUUCGGCGAAACCUAAGCGCCCGCCCGGGCGUAUGGCAACGCCGAGCCAAGCUUCGGCGCCUGCGCCGAUGCAGGUGUAGUGACUAGACGGCACCCACCUAAGGCGAACGUUAUGGUGAAGGCAUAGUCGAGGGAGCGGCGAAAGUCACACAAACCGG [A111C A120U A145G C150U C169G U176C]  0.00994
11. GUGCCUUGCGCCGGGAAACCACGCAAGGGAUGGUGUCAAAUUCGGCGAAACCUAAGCGCCCGCCCGGGCGUAUGGCAACGCCGAGCCAAGCUUCGGCGCCUGCGCCGAUGCAGGUGUAGUGACUAGACGGCACCCACCUAAGGCGAACGGUAUGGUGAAGGCAUAGUCUAGGGAGUGGCGAAAGUCACACAAACCGG [A111C A120U A145G C150G C169U]  0.0135
12. GUGCCUUGCGCCGGGAAACCACGCAAGGGAUGGUGUCAAAUUCGGCGAAACCUAAGCGCCCGCCCGGGCGUAUGGCAACGCCGAGCCAAGCUUCGGCGCCUGCGCCGAUGCAGGUGUAGUGACUAGACGGCACCCACCUAAGGCGAACGGUAUGGUGAAGGCAUAGUCCAGGGAGAGGCGAAAGUCACACAAACCGG [A111C A120U A145G C150G U176A]  0.0151
13. GUGCCUUGCGCCGGGAAACCACGCAAGGGAUGGUGUCAAAUUCGGCGAAACCUAAGCGCCCGCCCGGGCGUAUGGCAACGCCGAGCCAAGCUUCGGCGCCUGCGCCGAUGCAGGUGUAGUGACUAGACGGCACCCACCUAAGGCGAACGGUAUGGUGAAGGCAUAGUCCAGGGAGCGGCGAAAGUCACACAAACCGG [A111C A120U A145G C150G U176C]  0.0349
14. GUGCCUUGCGCCGGGAAACCACGCAAGGGAUGGUGUCAAAUUCGGCGAAACCUAAGCGCCCGCCCGGGCGUAUGGCAACGCCGAGCCAAGCUUCGGCGCCUGCGCCGAUGCAGGUGUAGUGACUAGACGGCACCCACCUAAGGCGAACGUUAUGGUGAAGGCAUAGUCGAGGGAGUGGCGAAAGUCACACAAACCGG [A111C A120U A145G C150U C169G]  0.0471
15. GUGCCUUGCGCCGGGAAACCACGCAAGGGAUGGUGUCAAAUUCGGCGAAACCUAAGCGCCCGCCCGGGCGUAUGGCAACGCCGAGCCAAGCUUCGGCGCCUGCGCCGAUGCAGGUGUAGUGACUAGACGGCACCCACCUAAGGCGAACGUUAUGGUGAAGGCAUAGUCCAGGGAGUGGCGAAAGUCACACAAACCGG [A111C A120U A145G C150U]  0.549
